In patent US20240336947:

Target: deglucosylated type IV collagen

B1: R699, mimiviral collagen galactosylhydroxylysyl glucosyltransferase (GGT) (protein)
chain: MEQSNNDDNLLVLGIGISVHKTDGVLRFEKYCQAHNLQYMIVGEGKKWNGGNLESEAGGGQKINELLIALESIKDNKLIVVCDTYDLIPLSGPEEILRKYRFLTPDNKVVFSSELYCWPDASLVERYPKVDTKYKYLNSGAFMGYRDDIYEMIKNGVKDRDDDQLFFSIKFIETDKIVLDYKCELFQAMYRCNSDLVVHKNRIFNGYTNSYPVFAHGNGPAKKLLNHMEGYFMTEPIDGSSNTINTFKLDNEPKVFFALYVDSNDLSALKQFLGKVASIQYGNKVIYLYDRSDNEQNRKLIQISYPNYHTGVTKYVFDDFKKSDAQFYFLLEQNCIITKKDILHELIMQVKDNHRVISPMIGYEQNSTRTNFWGDIEDGYYKRSENYLDLAKHKVRGLWNVPYVYGVILMHESVVRNWDLSMVKYNDKDMDLCFSLRKHTIFMYMINNNNYGYMV
  glucosylation of type IV collagen detected by LC-MS with UDP-[UL-13C6]-glucose: R699 (FIG. 4C,4D) glucosylates collagen peptidyl galactosylhydroxylysine to [13C6]-glucosylgalactosylhydroxylysine
